This experiment deals with GST-Sir3^SaID (S. cerevisiae, UniProt P06701 531-723). Briefly: pull-down.
GST-Sir3^SaID, sequence (P06701 531-723): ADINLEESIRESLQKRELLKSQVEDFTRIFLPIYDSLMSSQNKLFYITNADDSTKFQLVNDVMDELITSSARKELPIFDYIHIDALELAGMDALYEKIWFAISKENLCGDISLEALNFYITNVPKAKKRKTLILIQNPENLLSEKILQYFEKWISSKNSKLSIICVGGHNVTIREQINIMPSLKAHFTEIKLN

B1: Sae2^C (purified) (domain or fragment, S. cerevisiae, UniProt P46946 173-345, looked up)
chain: ENPESTSPNLYKNVKDNFLFDFNTNPLTKRAWILEDFRPNEDIAPVKRGRRKLERFYAQVGKPEDSKHRSLSVVIESQNSDYEFAFDNLRNRSKSPPGFGRLDFPSTQEGNEDKKKSQEIIRRKTKYRFLMASNNKIPPYEREYVFKREQLNQIVDDGCFFWSDKLLQIYARC
On to B1, for which the binding result is listed as “binds”.

The values above are taken from publication doi:10.1101/2021.05.26.445723 (bioRxiv, 2021).
